Literature values, collected in PMC6359293.

How the values were obtained:
[1] = biological target: hsp70 (Homo sapiens) (UniProt P0DMV8)
[2] = biological target: Phosphoprotein XD XD (Measles morbillivirus) (UniProt P03422)
UniProt P03422, sequence (P03422 457-507): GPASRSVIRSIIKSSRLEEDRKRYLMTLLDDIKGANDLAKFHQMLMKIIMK

UniProt P0DMV8, sequence (P0DMV8 2-641): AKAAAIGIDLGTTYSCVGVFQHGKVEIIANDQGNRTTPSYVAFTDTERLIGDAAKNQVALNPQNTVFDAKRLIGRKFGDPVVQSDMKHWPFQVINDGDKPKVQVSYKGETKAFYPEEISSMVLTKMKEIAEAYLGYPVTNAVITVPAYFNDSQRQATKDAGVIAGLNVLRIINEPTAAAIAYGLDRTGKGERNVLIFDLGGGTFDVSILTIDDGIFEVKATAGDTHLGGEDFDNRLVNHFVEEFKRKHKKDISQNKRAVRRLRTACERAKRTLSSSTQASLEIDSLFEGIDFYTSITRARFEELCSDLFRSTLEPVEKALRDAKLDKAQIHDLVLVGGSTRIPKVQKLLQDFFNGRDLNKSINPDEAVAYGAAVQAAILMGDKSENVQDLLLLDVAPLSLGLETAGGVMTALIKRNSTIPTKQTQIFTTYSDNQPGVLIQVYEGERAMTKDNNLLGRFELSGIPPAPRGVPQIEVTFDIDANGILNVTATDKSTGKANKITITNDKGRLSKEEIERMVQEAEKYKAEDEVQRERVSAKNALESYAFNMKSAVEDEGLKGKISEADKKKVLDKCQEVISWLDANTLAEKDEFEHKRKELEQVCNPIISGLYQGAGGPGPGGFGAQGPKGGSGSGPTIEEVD

**Q.** With “Measles virus nucleoprotein NTAIL NTAIL (from UniProt P04851)” as the substance, how does the Kd [1] read?
**A.** Its Kd is 70 µM.

**Q.** And the Kd [2]?
**A.** Its Kd is 3 µM.
